B1: hDOT1L(1-416) (protein)
chain: MGEKLELRLKSPVGAEPAVYPWPLPVYDKHHDAAHEIIETIRWVCEEIPDLKLAMENYVLIDYDTKSFESMQRLCDKYNRAIDSIHQLWKGTTQPMKLNTRPSTGLLRHILQQVYNHSVTDPEKLNNYEPFSPEVYGETSFDLVAQMIDEIKMTDDDLFVDLGSGVGQVVLQVAAATNCKHHYGVEKADIPAKYAETMDREFRKWMKWYGKKHAEYTLERGDFLSEEWRERIANTSVIFVNNFAFGPEVDHQLKERFANMKEGGRIVSSKPFAPLNFRINSRNLSDIGTIMRVVELSPLKGSVSWTGKPVSYYLHTIDRTILENYFSSLKNPKLREEQEAARRRQQRESKSNAATPTKGPEGKVAGPADAPMDSGAEEEKAGAATVKKPSPSKARKKKLNKKGRKMAGRKRGRPKK
B2: hDOT1L(1-416) Δ(376-390) (protein)
chain: MGEKLELRLKSPVGAEPAVYPWPLPVYDKHHDAAHEIIETIRWVCEEIPDLKLAMENYVLIDYDTKSFESMQRLCDKYNRAIDSIHQLWKGTTQPMKLNTRPSTGLLRHILQQVYNHSVTDPEKLNNYEPFSPEVYGETSFDLVAQMIDEIKMTDDDLFVDLGSGVGQVVLQVAAATNCKHHYGVEKADIPAKYAETMDREFRKWMKWYGKKHAEYTLERGDFLSEEWRERIANTSVIFVNNFAFGPEVDHQLKERFANMKEGGRIVSSKPFAPLNFRINSRNLSDIGTIMRVVELSPLKGSVSWTGKPVSYYLHTIDRTILENYFSSLKNPKLREEQEAARRRQQRESKSNAATPTKGPEGKVAGPADAPMDSGPSKARKKKLNKKGRKMAGRKRGRPKK

Target: oligo-nucleosomes purified from HeLa cells or chicken blood cells

Protein	HMTase activity in the presence of increasing concentrations (1.5, 15, 150 uM) of the competitor peptide C-RS10 (SEQ ID NO:20)
B1	effectively competed with increasing concentrations of the peptide
B2	effectively competed with increasing concentrations of the peptide
